# Results from paper PMC6158044 (Molecular microbiology, 2018).
# B1: 19-bp dsDNA (dsDNA)
# DNA 1: GGGGGCGGGGCGGGCGGCG
# DNA 2: CGCCGCCCGCCCCGCCCCC
# Experiments:
# PrgB188-1233 = PrgB188-1233 (Enterococcus faecalis, UniProt Q04112); test: isothermal titration calorimetry; format: binding
# PrgB246-558 = PrgB246-558 (Enterococcus faecalis, UniProt Q04112); test: isothermal titration calorimetry; format: binding
# PrgB188-1233 monomer = PrgB188-1233 monomer (Enterococcus faecalis (plasmid pCF10), UniProt Q04112 188-1233); test: ITC
# [1] = molecular target: PrgB246-558 adhesin domain (Enterococcus faecalis (plasmid pCF10), UniProt Q04112 246-558); test: ITC
# PrgB188-1233 dimer = PrgB188-1233 dimer (Enterococcus faecalis (plasmid pCF10), UniProt Q04112 188-1233); test: ITC
Molecule,Kd (PrgB188-1233),Kd (PrgB246-558),Kd (PrgB188-1233 monomer),Kd [1],Kd (PrgB188-1233 dimer)
O=P(O)(O)OCC(O)CO (centres unmarked) [glycerol phosphate],309 ± 55.3 µM,276 ± 71.2 µM,–,–,–
B1,–,–,364 ± 73.8 µM,46.2 ± 14.5 µM,164 ± 42.4 µM
